Source: US20220025021A1 (BETH ISRAEL DEACONESS MEDICAL CENTER, published 2022)

Experiments:
Assay in all cases: cell-based or functional assay
[1] = target: HIV-1 envelope glycoprotein of pseudovirus SC422661.8 (HIV-1)
[2] = target: HIV-1 envelope glycoprotein of pseudovirus RHPA4259.7 (HIV-1)
[3] = target: HIV-1 envelope glycoprotein of pseudovirus DU172.17 (HIV-1)
[4] = target: HIV-1 envelope glycoprotein of pseudovirus BB1012-11.TC21 (HIV-1)
[5] = target: HIV-1 envelope glycoprotein of pseudovirus CNE52 (HIV-1)
[6] = target: HIV-1 envelope glycoprotein of pseudovirus 0260.v5.c36 (HIV-1)

| Binder | IC50 (neutralization in TZM.bl cells) [1] [µg/mL] | IC80 (neutralization in TZM.bl cells) [1] [µg/mL] | IC50 (neutralization in TZM.bl cells) [2] [µg/mL] | IC80 (neutralization in TZM.bl cells) [2] [µg/mL] | IC50 (neutralization in TZM.bl cells) [3] [µg/mL] | IC80 (neutralization in TZM.bl cells) [3] [µg/mL] | IC50 (neutralization in TZM.bl cells) [4] [µg/mL] | IC80 (neutralization in TZM.bl cells) [4] [µg/mL] | IC50 (neutralization in TZM.bl cells) [5] [µg/mL] | IC80 (neutralization in TZM.bl cells) [5] [µg/mL] | IC50 (neutralization in TZM.bl cells) [6] [µg/mL] | IC80 (neutralization in TZM.bl cells) [6] [µg/mL] |
| --- | --- | --- | --- | --- | --- | --- | --- | --- | --- | --- | --- | --- |
| MS-93 (antibody) VH: not shown VL: DIVLTQSPLSLSVTPGESASISCKSSHSLIHGDRNNYLAWYVQKPGRSPQLLIYLASSRASGVPDRFSGSGSDKDFTLKISRVETEDVGTYYCMQGRESPWTFGQGTKVDIKRTVAAPSVFIFPPSDEQLKSGTASVVCLLNNFYPREAKVQWKVDNALQSGNSQESVTEQDSKDSTYSLSSTLTLSKADYEKHKVYACEVTHQGLSSPVTKSFNRGEC | 0.333 | 2.71 | 0.358 | 1.6 | 3.24 | 9.14 | 0.034 | 0.118 | 0.636 | 5.6 | 0.034 | 0.116 |
| MS-101 (antibody) VH: not shown VL: DFVLTQSPHSLSVTPGEPASISCKSSHSLIHGDRNNYLAWYVQKPGRSPQLLIYLASSRASGVPDRFSGSGSDKDFTLKISRVEAEDVGTYYCMQGRESPWTFGQGTKVDIKRTVAAPSVFIFPPSDEQLKSGTASVVCLLNNFYPREAKVQWKVDNALQSGNSQESVTEQDSKDSTYSLSSTLTLSKADYEKHKVYACEVTHQGLSSPVTKSFNRGEC | 0.251 | 1.88 | 0.227 | 0.816 | 2.41 | 6.88 | 0.037 | 0.121 | 0.145 | 1.23 | 0.025 | 0.069 |
| MS-96 (antibody) VH: not shown VL: DIVLTQSPHSLSVTPGESASISCKSSHSLIHGDRNNYLAWYVQKPGRSPQLLIYLASSRASGVPDRFSGSGSDKDFTLKISRVEAEDVGTYYCMQGRESPWTFGQGTKVDIKRTVAAPSVFIFPPSDEQLKSGTASVVCLLNNFYPREAKVQWKVDNALQSGNSQESVTEQDSKDSTYSLSSTLTLSKADYEKHKVYACEVTHQGLSSPVTKSFNRGEC | 0.397 | 2.82 | 0.252 | 1.14 | 3.58 | 13 | 0.047 | 0.195 | 0.543 | 5.36 | 0.026 | 0.093 |
| MS-98 (antibody) VH: not shown VL: DFVLTQSPLSLSVTPGESASISCKSSHSLIHGDRNNYLAWYVQKPGRSPQLLIYLASSRASGVPDRFSGSGSGKDFTLKISRVETEDVGTYYCMQGRESPWTFGQGTKVDIKRTVAAPSVFIFPPSDEQLKSGTASVVCLLNNFYPREAKVQWKVDNALQSGNSQESVTEQDSKDSTYSLSSTLTLSKADYEKHKVYACEVTHQGLSSPVTKSFNRGEC | 0.301 | 2.14 | 0.146 | 0.676 | 1.44 | 6.33 | 0.025 | 0.114 | 0.237 | 1.91 | 0.019 | 0.068 |
| MS-99 (antibody) VH: not shown VL: DFVLTQSPLSLSVTPGESASISCKSSHSLIHGDRNNYLAWYVQKPGRSPQLLIYLASSRASGVPDRFSGSGSDKDFTLKISRVEAEDVGTYYCMQGRESPWTFGQGTKVDIKRTVAAPSVFIFPPSDEQLKSGTASVVCLLNNFYPREAKVQWKVDNALQSGNSQESVTEQDSKDSTYSLSSTLTLSKADYEKHKVYACEVTHQGLSSPVTKSFNRGEC | 0.294 | 1.46 | 0.257 | 0.718 | 1.95 | 7.14 | 0.032 | 0.084 | 0.219 | 1.8 | 0.024 | 0.087 |
| MS-94 (antibody) VH: not shown VL: DIVLTQSPHSLSVTPGEPASISCKSSHSLIHGDRNNYLAWYVQKPGRSPQLLIYLASSRASGVPDRFSGSGSDKDFTLKISRVETEDVGTYYCMQGRESPWTFGQGTKVDIKRTVAAPSVFIFPPSDEQLKSGTASVVCLLNNFYPREAKVQWKVDNALQSGNSQESVTEQDSKDSTYSLSSTLTLSKADYEKHKVYACEVTHQGLSSPVTKSFNRGEC | 0.315 | 1.23 | 0.358 | 0.985 | 3.03 | 11.2 | 0.055 | 0.146 | 0.455 | 5.18 | 0.027 | 0.095 |
| MS-102 (antibody) VH: not shown VL: DFVLTQSPHSLSVTPGESASISCKSSHSLIHGDRNNYLAWYVQKPGRSPQLLIYLASSRASGVPDRFSGSGSGKDFTLKISRVEAEDVGTYYCMQGRESPWTFGQGTKVDIKRTVAAPSVFIFPPSDEQLKSGTASVVCLLNNFYPREAKVQWKVDNALQSGNSQESVTEQDSKDSTYSLSSTLTLSKADYEKHKVYACEVTHQGLSSPVTKSFNRGEC | 0.17 | 1.21 | 0.178 | 0.649 | 1.16 | 5.91 | 0.031 | 0.1 | 0.211 | 1.87 | 0.019 | 0.053 |
| MS-103 (antibody) VH: not shown VL: DIVLTQSPLSLSVTPGEPASISCKSSHSLIHGDRNNYLAWYVQKPGRSPQLLIYLASSRASGVPDRFSGSGSDKDFTLKISRVETEDVGTYYCMQGRESPWTFGQGTKVDIKRTVAAPSVFIFPPSDEQLKSGTASVVCLLNNFYPREAKVQWKVDNALQSGNSQESVTEQDSKDSTYSLSSTLTLSKADYEKHKVYACEVTHQGLSSPVTKSFNRGEC | 0.408 | 1.99 | 0.29 | 1.33 | 2.68 | 10.2 | 0.046 | 0.155 | 0.432 | 4.18 | 0.03 | 0.104 |
| MS-97 (antibody) VH: not shown VL: DFVLTQSPLSLSVTPGEPASISCKSSHSLIHGDRNNYLAWYVQKPGRSPQLLIYLASSRASGVPDRFSGSGSDKDFTLKISRVETEDVGTYYCMQGRESPWTFGQGTKVDIKRTVAAPSVFIFPPSDEQLKSGTASVVCLLNNFYPREAKVQWKVDNALQSGNSQESVTEQDSKDSTYSLSSTLTLSKADYEKHKVYACEVTHQGLSSPVTKSFNRGEC | 0.311 | 2.09 | 0.183 | 0.824 | 2.21 | 7.54 | 0.04 | 0.13 | 0.214 | 1.62 | 0.028 | 0.096 |
| MS-95 (antibody) VH: not shown VL: DIVLTQSPHSLSVTPGESASISCKSSHSLIHGDRNNYLAWYVQKPGRSPQLLIYLASSRASGVPDRFSGSGSGKDFTLKISRVETEDVGTYYCMQGRESPWTFGQGTKVDIKRTVAAPSVFIFPPSDEQLKSGTASVVCLLNNFYPREAKVQWKVDNALQSGNSQESVTEQDSKDSTYSLSSTLTLSKADYEKHKVYACEVTHQGLSSPVTKSFNRGEC | 0.433 | 2.88 | 0.208 | 0.69 | 1.97 | 7.07 | 0.044 | 0.117 | 0.567 | 5.05 | 0.022 | 0.06 |
| MS-100 (antibody) VH: not shown VL: DFVLTQSPHSLSVTPGEPASISCKSSHSLIHGDRNNYLAWYVQKPGRSPQLLIYLASSRASGVPDRFSGSGSGKDFTLKISRVETEDVGTYYCMQGRESPWTFGQGTKVDIKRTVAAPSVFIFPPSDEQLKSGTASVVCLLNNFYPREAKVQWKVDNALQSGNSQESVTEQDSKDSTYSLSSTLTLSKADYEKHKVYACEVTHQGLSSPVTKSFNRGEC | 0.184 | 1.31 | 0.142 | 0.694 | 1.56 | 5.25 | 0.029 | 0.095 | 0.147 | 2.02 | 0.019 | 0.053 |
